This assay concerns the target GST-IRP2Δ73 (human) (UniProt P48200). Description: AlphaScreen or HTRF.

Substance “FBXL5C492Δ-SKP1 complex (tag-free) (from UniProt Q9UKA1 200-691; P63208 1-163)” had an IC50 of 120 pM.
